From the supplement of paper PMC12764529
± gives the half width of the 95% confidence interval.

Assays:
[1] = folding stability dG unfold from chymotrypsin proteolysis; higher = more stable
Protocol: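 Folding stability of de novo designed mini-proteins (<80 aa, no Cys; designed by TrROS, TrMRF, ProteinMPNN and the joint model) was measured by cDNA display proteolysis with trypsin and chymotrypsin. Each protease was used at 11 concentrations in a threefold dilution series plus a no-protease condition. K50 was inferred by Bayesian fitting of sequencing counts, and dG unfold was derived against a sequence-predicted unfolded-state K50 (Tsuboyama et al. method). Sequences shown include variable-length N-terminal GS-type padding (SAGGSAGG...) inside a display construct carrying a PA tag. Rows were kept only if the AF2 dimer inter-PAE was >15, to exclude likely homo-oligomers.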

[2] = folding stability dG unfold (combined trypsin and chymotrypsin); higher = more stable
Method in brief: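 Digests were run with trypsin and chymotrypsin at 11 concentrations in threefold dilutions, plus a no-protease condition, on designed mini-proteins in a PA-tagged cDNA display construct. The mini-proteins were under 80 residues, had no cysteine, and were kept only when AlphaFold2 dimer inter-PAE was above 15. After sequencing, Bayesian fitting of the counts gave K50, from which unfolding free energy was derived against a sequence-predicted unfolded-state K50 and a shared folded-state K50, per protease or combined.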

Sequence | folding stability dG unfold [1] [kcal/mol] | folding stability dG unfold [2] [kcal/mol]
SAGGSAGGAIAPGEEVEAEVTIVDPLTGKETTAKVTLTVHPTSVTITLPGGKPAVVPAAYVRFGSAGGSAGG [r6_436_TrMRF] | -0.176 ± 0.56 | -0.535 ± 0.4
SAGGSAGGSAGGSPVLKTEEKALPNGTVVTTEFLPGGRRREVITPPDGTVKVVEREIERSAGGSAGGSAGGS [r10_1184_JUSTAS] | 0.356 ± 0.019 | -0.0994 ± 0.095
SAGGSAGGSGEYVVVLLREELPDEERYLRRPVPLDAALEALKEGKLVRSSEGREWRFAEYRPESAGGSAGGS [r12_432_TrMRF] | -0.0188 ± 0.33 | -0.218 ± 0.28
SAGGSAGGSARIRFPNGYEIEVPRKRNPDGNLEITIESRNPDNPEHREMAKKIARDIADELSAGGSAGGSAG [r3_163_TrROS] | -0.0805 ± 0.06 | -0.526 ± 0.17
SAGGSAGGSGPALANIPPDAKVTVTPLPDDSYLVDIYYPNGPVEYLDVPVGDKWVKFEVEPEKSAGGSAGGS [r20_50_TrMRF] | -0.749 ± 0.24 | < -1
SAGGSAGGSAGSMTVTSKYTLPGSSDVPVEVEVYSEAPVAVLTKPGAKTVLPLEALKALLSAGGSAGGSAGG [r11_370_JUSTAS] | 0.346 ± 0.14 | -0.0987 ± 0.084
SAGGSAGGSAGEIVIDVEPNMTVEEVKKRIKALAEELKKEKGLEIKKIEIKEGMSVEELLSAGGSAGGSAGG [r17_43_TrROS_Hall] | 0.225 ± 0.077 | -0.00172 ± 0.13
SAGGSAGGSSEVIEKLLELNPDVEVVSVTPTPNGVTVTVATKEGGEETVSSAELEKLGVKIRLSAGGSAGGS [r12_3_JUSTAS] | 0.282 ± 0.1 | 0.1 ± 0.28
SAGGSAGGSAGGSPILIPRPDDYVLVVRIEEPRPLPDGDLAPPRIDVRLMPREEVERLLSAGGSAGGSAGGS [r4_238_TrMRF] | 0.992 ± 0.08 | 0.378 ± 0.12
SAGGSPWIEVEIPFPPGMPADELADFIAEELDENGHDVKVDDVEQDPEEGYMKFRVRDGKSVEIPWSAGGSA [r2_242_TrROS] | -0.522 ± 0.28 | -0.521 ± 0.23
SAGGSAGGSAGGSSSMVEVEVESEEELEAYLEPLAARGVEVTLTSRDPETGRWLLRVTPPSAGGSAGGSAGG [r7_964_JUSTAS] | 0.233 ± 0.2 | -0.0911 ± 0.2
SAGGSAGGSGMERVEAVREALVPGDPDAVPAPITYDPQTGKLTYSVSDPRVAAALAADPLVSLSAGGSAGGS [r12_623_JUSTAS] | 0.333 ± 0.11 | -0.309 ± 0.19
SAGGSAGGSPPPVPLSTLAVEPDPATGGKFTVLLAYPDGSTRELTSEEEAAALPNFDLERRLASAGGSAGGS [r20_192_JUSTAS] | 0.443 ± 0.2 | -0.0474 ± 0.21
SAGGSAGGSAGGPIVLKFKTKEEAEEFAKKLKKEIPNIKEVKIEEDPETGEYYLVVVNDSAGGSAGGSAGGS [r10_544_TrMRF] | 4.86 ± 0.17 | 5 ± 0.28
SAGGSAGGSPPESRPFTTDPGPSGEYTAKLLPPDGSSEEVVLPVSQPRTLNVPKDWSFEVLPPSAGGSAGGS [r12_517_JUSTAS] | 0.157 ± 0.11 | -0.338 ± 0.12
SAGSEVTLEITLTREVPSGKPVTLTETKTVPLAPSVPVEEVIKALKSPEWTAKVTLYTDGTPVTELTLDSAG [r5_278_JUSTAS] | 0.604 ± 0.064 | 0.176 ± 0.069
SAGGSAGGTREIELPGMKISVQKDPNQGKKKIEVEFPNGEEFTMDPGKPPDDLPPPFRRALKEISAGGSAGG [r6_749_TrROS] | -0.176 ± 0.31 | < -1
SAGGSAGGSAGGSMVIKFTHPDGDPNLPVETLNLKKEELSEEKIKELKEKNPDIKIELKSAGGSAGGSAGGS [r4_422_JUSTAS] | 0.257 ± 0.33 | -0.326 ± 0.39
SAGGSAGMPRLVEIEVPLPPDAKDPEIKEKIIKTPEGYEYKTIKETSDPSPSSLRKIIMEKKPLKKSAGGSA [r15_852_JUSTAS] | -0.197 ± 0.99 | < -1

Sequence | folding stability dG unfold [1] [kcal/mol] | folding stability dG unfold [2] [kcal/mol]
SAGGSMTVVTVEARPPDSSETTVTPLTETAPDGRPRAISLEEARARLAAEPDRPVTRVTVRPEAAASAGGSA [r2_192_JUSTAS] | 0.452 ± 0.057 | 0.0975 ± 0.15
SAGGSAGGMTPEEIRDALAAKLRAADPDVEVRPVRQEGDEVVVVVTRPATGERREVRVPADVPLSAGGSAGG [r6_446_JUSTAS] | 0.406 ± 0.19 | -0.0965 ± 0.18
SAMTTTTTTTDPASGRTVVTTTTPLPDGSVVTTEVDLSNPVRTTTTHPLTDGTPAPTTTTTALPADATLSAG [r14_64_JUSTAS] | 0.0551 ± 0.046 | -0.345 ± 0.12
SAGGSAGGSAMVTVTILSEDTTDSPRTYTVLFPAEGKALPLPFPADASEAEVRARALELLASAGGSAGGSAG [r3_142_JUSTAS] | 0.673 ± 0.15 | < -1
SAGGSAGGSAGMKLIEFPPGEEFEEFIKNLPGPIKSVERTKIEPEKVLAKIVLELPPSNLSAGGSAGGSAGG [r11_143_JUSTAS] | -0.545 ± 0.36 | < -1
SAGMSTTTTAEIKAAVEAAAGEGLNVAPPTVTATDGTPISDDTVIEPGAPVPVTVDVPIDPVPPPELRSAGG [r19_278_JUSTAS] | 0.336 ± 0.09 | -0.0815 ± 0.28
SAGGSAGGSAGGSGMEEIEEKMKKGYTFTVTSSSPNKTYTIKPEEVSKFKDESISVKAESAGGSAGGSAGGS [r4_157_JUSTAS] | -1.4 ± 0.84 | < -1
SAGGSAGGSAGMPLEELAQEALNQFQENGEPVEIDIEVETPNGEYFPFEVEINGDGLKIRSAGGSAGGSAGG [r11_954_TrROS] | 0.455 ± 0.068 | -0.0909 ± 0.32
SAGGSAGGSAGGWIVRIEHGGKERMFQFDSPEEIKDQIRPMFPNGKKVKVEVMPPDDLKSAGGSAGGSAGGS [r10_1167_TrROS] | -0.0912 ± 0.16 | -0.483 ± 0.21
SAGGSAGGSPAEITREEAVELAYETLPATEPAVFVFADPRLLVVYPDGADPSRNRVVEVPLLDSAGGSAGGS [r12_648_TrMRF] | -0.339 ± 0.17 | -0.741 ± 0.22
SAGTVTSSTTPLPDGSLLSTTTTTSPVSGTSVTTSTTTTTPVTPTTPPPPPRPVYPRYYDGVTEPALSLSAG [r5_169_JUSTAS] | -0.12 ± 0.068 | -0.639 ± 0.18
SAGGSAGGSAGGMKPQPIKVTVERHFPDGTVELEELVFPSPEEVEKFLKENPDWTVVEVESAGGSAGGSAGG [r11_802_JUSTAS] | 2.6 ± 0.081 | 3.4 ± 0.22
SAGGSAGGSAGGSRYLRIETDRIDDVVEAALKTPGVEEVRVDTPADDRFYVLVKVPDEVSAGGSAGGSAGGS [r4_1_TrMRF] | -1.13 ± 0.92 | < -1
SAGGSAGGSAGMTLVKTYERFPETGTVVERLSAREPDGPTVPLEVTKVRPVAGEEPVPLLSAGGSAGGSAGG [r11_750_JUSTAS] | -0.665 ± 0.23 | < -1
SAGGSAGGSAGGEARDNGVPTIEIPIPPEFKKGMPAEQMVDQLAKQLPPGVKDIHIEPPPSAGGSAGGSAGG [r7_487_TrROS] | 0.744 ± 0.035 | 0.376 ± 0.13
SAGGSAGGSAGDPNYVQVTIRMPMERRNPEDGKWERNPMEITIPFKSKDQADKIAEEIGISAGGSAGGSAGG [r11_984_TrROS] | -0.0109 ± 0.18 | -0.375 ± 0.23
SAGGSAGGSAGGNPVYRTRAEILETVPVGEDETVWLPGTAAPVSPSTTVLLARVYSVPADSAGGSAGGSAGG [r11_793_TrMRF] | -0.355 ± 0.27 | < -1
SAGGSAGGSAREELVRRAAEEGLPGVRVLAIPPGNREVPAIVEGDKVYSYDLPDDAEVVVASAGGSAGGSAG [r3_244_TrMRF] | 0.408 ± 0.08 | -0.0679 ± 0.086
